Measured values taken from US20040161739A1.

What was measured:
[1] = target: active human CCR5 chemokine receptor (human) (UniProt P51681); assay: cell-based or functional assay
[2] = target: IL-8A interleukin receptor (UniProt P25024); assay: cell-based or functional assay

Chain of UniProt P51681 (P51681 whole entry): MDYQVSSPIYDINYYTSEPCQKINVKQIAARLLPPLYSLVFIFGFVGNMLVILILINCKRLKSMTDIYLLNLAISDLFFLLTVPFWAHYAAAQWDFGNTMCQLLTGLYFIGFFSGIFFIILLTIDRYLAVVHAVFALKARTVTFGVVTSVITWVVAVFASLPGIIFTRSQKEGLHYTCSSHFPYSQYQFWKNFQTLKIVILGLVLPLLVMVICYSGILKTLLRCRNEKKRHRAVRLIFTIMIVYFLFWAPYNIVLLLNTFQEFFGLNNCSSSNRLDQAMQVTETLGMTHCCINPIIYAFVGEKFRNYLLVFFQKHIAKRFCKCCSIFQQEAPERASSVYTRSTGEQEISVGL

Substance | EC50 of the acidification response (microphysiometer) [1] [nM] | acidification rate at 30 nM, percent of baseline level (% of baseline level) [1] | increase in metabolic activity (microphysiometer) [2] [%]
recombinant human MIP-1α (Macrophage Inflammatory Protein 1 α) (from UniProt P10147 27-92) (ligand) | 3 | 156 | 
recombinant human IL-8 (Interleukin 8) (from UniProt P10145 28-99) (ligand) |  |  | 160
